This is an account of results in patent US20190389961A1 (INNATE PHARMA, published 2019).

In general, EC50 refers to the concentration that produces a half-maximal response. Lower therefore signals greater potency.

The target of assay [1] is T1, human CD39 (vascular CD39, NTPDase1) expressed at the surface of cells (human, UniProt P49961 1-510).
T1 construct: also called huCD39; CHO-huCD39
T1 sequence: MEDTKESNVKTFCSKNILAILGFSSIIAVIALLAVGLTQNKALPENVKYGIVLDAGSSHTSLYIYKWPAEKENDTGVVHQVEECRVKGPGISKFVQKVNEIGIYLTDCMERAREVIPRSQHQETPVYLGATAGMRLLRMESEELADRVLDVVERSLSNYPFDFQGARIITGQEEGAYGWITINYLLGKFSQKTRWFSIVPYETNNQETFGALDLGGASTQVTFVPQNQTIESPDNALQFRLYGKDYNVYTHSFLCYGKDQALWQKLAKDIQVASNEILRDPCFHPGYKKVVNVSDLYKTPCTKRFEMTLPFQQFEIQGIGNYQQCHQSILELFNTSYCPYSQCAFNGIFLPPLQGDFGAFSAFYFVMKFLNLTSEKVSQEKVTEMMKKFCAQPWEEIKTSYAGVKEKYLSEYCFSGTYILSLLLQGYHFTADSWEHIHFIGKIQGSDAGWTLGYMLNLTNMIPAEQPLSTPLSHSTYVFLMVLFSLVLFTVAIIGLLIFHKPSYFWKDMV
In words: flow cytometry on Ramos lymphoma cells, second set of experiments. The protocol:
Cells were incubated with various concentration of unlabeled anti-CD39 antibody from 30 μg/ml to 5×10-⁴ μg/ml, for 30 minutes at 4° C. After washes, cells were incubated with Goat anti-mouse H+L labeled secondary antibody for 30 min at 4° C.
On the technique in general: Flow cytometry measures light scatter and fluorescence of single cells or particles in a stream.

The target in assay [2] is T2, recombinant human CD39-L3 (NTPDase3, ENTPD3) (human, UniProt O75355 44-485, limits assumed).
T2 construct: Genbank NP_001239 is printed
T2 sequence: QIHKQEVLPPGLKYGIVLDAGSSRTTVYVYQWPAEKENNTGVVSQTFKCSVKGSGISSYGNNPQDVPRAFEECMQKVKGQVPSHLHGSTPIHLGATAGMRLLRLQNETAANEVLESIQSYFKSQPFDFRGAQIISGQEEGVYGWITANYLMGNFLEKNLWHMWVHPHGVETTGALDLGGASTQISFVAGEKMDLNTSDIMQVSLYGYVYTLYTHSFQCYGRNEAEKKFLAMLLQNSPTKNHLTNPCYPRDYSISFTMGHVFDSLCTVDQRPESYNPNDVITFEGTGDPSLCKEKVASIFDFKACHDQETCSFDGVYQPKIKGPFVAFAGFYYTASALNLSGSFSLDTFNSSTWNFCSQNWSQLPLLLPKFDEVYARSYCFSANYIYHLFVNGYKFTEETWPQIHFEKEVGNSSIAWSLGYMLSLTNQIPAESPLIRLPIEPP
In words: ELISA on plate-coated recombinant huCD39 L3; the single curve has no legend on the sheet, I-394 by the legend paragraph 70. The protocol: (§1) Wells were washed in TBS Tween 20, and further saturated 2H at RT in TBS Blocking buffer. Dose range concentration of primary antibody was incubated in TBS blocking buffer for 2 h at RT. Wells were washed in TBS Tween 20. […] Optical density was measured on Enspire™ at OD=450.
A general note: ELISA stands for enzyme-linked immunosorbent assay.

Assay [3] addresses T3, recombinant human CD39-L4 (NTPDase5, ENTPD5) (human, UniProt O75356 25-428).
T3 construct: Genbank NP_001240 (precursor) is printed
T3 sequence: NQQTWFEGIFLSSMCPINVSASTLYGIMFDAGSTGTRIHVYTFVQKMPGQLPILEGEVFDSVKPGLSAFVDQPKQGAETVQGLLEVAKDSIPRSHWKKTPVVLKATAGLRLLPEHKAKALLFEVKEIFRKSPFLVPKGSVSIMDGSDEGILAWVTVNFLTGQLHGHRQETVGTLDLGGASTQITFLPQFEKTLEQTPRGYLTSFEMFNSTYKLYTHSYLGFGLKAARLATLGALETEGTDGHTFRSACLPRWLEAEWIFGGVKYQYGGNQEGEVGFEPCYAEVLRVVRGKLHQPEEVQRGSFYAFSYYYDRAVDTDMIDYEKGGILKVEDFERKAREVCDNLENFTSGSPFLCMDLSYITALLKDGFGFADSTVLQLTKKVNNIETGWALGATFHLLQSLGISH
Nature of the assay: ELISA on plate-coated recombinant huCD39 L4; the single curve has no legend on the sheet, I-394 by the legend paragraph 70. The protocol: as §1

The target in the next assay is T4, human CD39 mutant 15 (human, UniProt P49961 1-510).
T4 construct: Expressed on Hek-293T cells; also called M15
T4 chain: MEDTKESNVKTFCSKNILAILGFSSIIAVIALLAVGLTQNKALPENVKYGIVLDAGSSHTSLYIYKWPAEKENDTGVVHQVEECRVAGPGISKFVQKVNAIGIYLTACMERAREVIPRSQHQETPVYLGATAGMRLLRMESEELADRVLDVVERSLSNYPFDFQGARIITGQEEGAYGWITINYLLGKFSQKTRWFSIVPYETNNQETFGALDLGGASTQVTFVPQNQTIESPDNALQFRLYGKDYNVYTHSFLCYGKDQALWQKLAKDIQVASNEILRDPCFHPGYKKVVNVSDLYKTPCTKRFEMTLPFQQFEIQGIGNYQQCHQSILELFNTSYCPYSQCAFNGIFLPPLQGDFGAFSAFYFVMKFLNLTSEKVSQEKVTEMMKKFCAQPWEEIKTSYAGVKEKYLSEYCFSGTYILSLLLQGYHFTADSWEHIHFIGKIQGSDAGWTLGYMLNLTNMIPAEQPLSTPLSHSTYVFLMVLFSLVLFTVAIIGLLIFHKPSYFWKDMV
In words: flow cytometry on Hek-293T cells expressing CD39 mutant 15 (panel M15); unstained (US) median 8,98; antibody concentration not shown. The protocol:
Mutants were transfected in Hek-293T cells, as shown in the table 1, using numbering of SEQ ID NO: 1. […] Mutant 19 includes substitutions at residues R138, M139 and E142.
In order to define the epitopes of the further anti-CD39 antibodies of Example 5, they were tested for loss of binding to the panel of CD39 mutants as described in Example 1 and Table 1. Mutants were transfected in Hek-293T cells, as shown in the table 1, using numbering of SEQ ID NO: 1.Dose-ranges of test antibodies (10-2.5-0.625-0.1563-0.0391-0.0098-0.0024-0.0006 μg/ml) are tested on the 20 generated mutants by flow cytometry.

B1: antibody I-394 (antibody, V domains shown)
VH: EVQLQQSGPELVKPGASVKMSCKASGYTFTDYNMHWVKQSHGRTLEWIGYIVPLNGGSTFNQKFKGRATLTVNTSSRTAYMELRSLTSEDSAAYYCARGGTRFAYWGQGTLVTVSA
VL: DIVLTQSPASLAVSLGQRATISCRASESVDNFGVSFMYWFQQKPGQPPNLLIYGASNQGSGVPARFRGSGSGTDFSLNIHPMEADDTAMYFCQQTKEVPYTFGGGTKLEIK
notes: Mouse variable regions; Produced in CHO with human IgG1 constant domains carrying L234A/L235E/G237A/A330S/P331S (Kabat EU numbering) and a human Ck constant domain
The molecule B1 registered an EC50 in assay [1] of 0.19 µg/mL. For the same molecule, the binding result in assay [2] and in assay [3] was “no binding (tested: about 50 µg/ml)” each time. Further, the “Median : Comp-Alexa Fluor 647-A” value in the assay with human CD39 mutant 15 was found to be 6360.
